Values quoted from earlier work in paper PMC3824636.

Assays:
[1] = biological target: Cys149 (UniProt position 156, VSNASCTTNCL); assay: chemical modification or UV-vis (listed collectively, not mapped to individual values); settings: not stated (apo or holo not specified)
[2] = biological target: Cys149 (UniProt position 150, VSNASCTTNCL); assay: as above; settings: not stated (apo or holo not specified)
[3] = biological target: Cys149 (UniProt position 152, ISNASCTTNCL); assay: as above; settings: not stated (apo or holo not specified)
[4] = tested on: Cys302; assay: chemical modification (described only as 'titration of Cys-302')

Substance: Cytoplasmic glyceraldehyde-3-phosphate dehydrogenase GAPC1 (Arabidopsis thaliana)
- pKa [1]: 5.7

Substance: Glyceraldehyde-3-phosphate dehydrogenase (GAPDH) (Escherichia coli)
- pKa [2]: ~5.7

Substance: Glyceraldehyde-3-phosphate dehydrogenase (GAPDH) (Geobacillus stearothermophilus (Bacillus stearothermophilus))
- pKa [3]: 5.9

Substance: Glyceraldehyde-3-phosphate dehydrogenase (GAPDH), pig liver as stated (Sus scrofa)
- pKa [2]: 5.5

Substance: Non-phosphorylating NADP-dependent glyceraldehyde-3-phosphate dehydrogenase (GAPN) (Streptococcus mutans)
- pKa ([4]; NADP+-bound (holo-enzyme)): 6.1
- pKa ([4]; apo-enzyme (no cofactor)): 8.5
